Measured values: PMC6058493

Columns and labels:
[1] = molecular target: prostate-specific membrane antigen (PSMA) (UniProt Q04609); experiment: competition (flow cytometry, confocal microscopy); details: 2'-fluoro pyrimidines; 3'-spacer-NH2 as purchased; cells incubated 30 min at room temperature, washed 3x with PBS; buffer, salt and pH of incubation not stated; scale: % cells bound by aptamer nanobubbles with excess free aptamer
[2] = molecular target: prostate-specific membrane antigen (PSMA) (UniProt Q04609); experiment: flow cytometry and confocal microscopy on LNCaP cells; details: 2'-fluoro pyrimidines; 3'-spacer-NH2; cells incubated 30 min at room temperature, washed 3x with PBS; buffer, salt and pH of incubation not stated

Sequence of UniProt Q04609 (Q04609 whole entry): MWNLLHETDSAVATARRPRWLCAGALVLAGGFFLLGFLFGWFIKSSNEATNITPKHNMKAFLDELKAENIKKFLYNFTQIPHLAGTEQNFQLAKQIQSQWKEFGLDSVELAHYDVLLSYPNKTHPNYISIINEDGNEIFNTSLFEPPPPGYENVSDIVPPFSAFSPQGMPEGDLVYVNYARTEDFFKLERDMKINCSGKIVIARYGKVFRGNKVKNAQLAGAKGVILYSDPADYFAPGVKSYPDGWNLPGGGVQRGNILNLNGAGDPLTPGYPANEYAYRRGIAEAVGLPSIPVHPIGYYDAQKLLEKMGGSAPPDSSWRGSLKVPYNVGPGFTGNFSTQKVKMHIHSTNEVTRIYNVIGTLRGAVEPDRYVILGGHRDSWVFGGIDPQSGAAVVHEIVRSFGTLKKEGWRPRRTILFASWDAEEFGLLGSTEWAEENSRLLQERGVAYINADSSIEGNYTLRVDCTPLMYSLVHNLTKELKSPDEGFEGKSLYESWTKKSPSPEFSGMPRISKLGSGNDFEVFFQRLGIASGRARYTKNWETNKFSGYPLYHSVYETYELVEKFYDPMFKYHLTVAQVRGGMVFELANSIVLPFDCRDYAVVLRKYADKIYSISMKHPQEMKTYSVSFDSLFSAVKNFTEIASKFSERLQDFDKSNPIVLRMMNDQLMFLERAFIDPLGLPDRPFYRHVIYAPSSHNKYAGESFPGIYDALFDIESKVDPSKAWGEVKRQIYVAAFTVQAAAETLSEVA

“GGGAGGACGAUGCGGAUCAGCCAUGUUUACGUCACUCCU [A10-3.2 aptamer (free competitor)]” was tested, and the binding signal [1] was 4.07.
“GGGAGGACGAUGCGGAUCAGCCAUGUUUACGUCACUCCU [A10-3.2 aptamer on siFoxM1-Apt-CNBs]” was tested, and the binding signal (% cells bound) [2] was 82.4.
